Experimental findings from patent US20230357431A1 are described below.

Assay [1] concerns the target VH3VL1-CD8ATD-CD137CSD-CD3zSSD fusion (anti-P329G chimeric antigen receptor).
In assay [2] the target is VH2VL1-CD8ATD-CD137CSD-CD3zSSD fusion (anti-P329G chimeric antigen receptor).
In assay [3] the target is VL1VH3-CD8ATD-CD137CSD-CD3zSSD fusion (anti-P329G chimeric antigen receptor, VLVH orientation).
For assay [4], the target named is VH3VL1-CD8ATD-CD137CSD-CD3zSSD fusion (anti-P329G chimeric antigen receptor). This is another data set of the same source.
In assay [5] the target is VH1VL1-CD8ATD-CD137CSD-CD3zSSD fusion (anti-P329G chimeric antigen receptor).
In assay [6] the target is VH2VL1-CD8ATD-CD137CSD-CD3zSSD fusion (anti-P329G chimeric antigen receptor). This is another data set of the same source.
The target of assay [7] is VL1VH3-CD8ATD-CD137CSD-CD3zSSD fusion (anti-P329G chimeric antigen receptor, VLVH orientation). The source holds these as a separate data set.
Assay [8] deals with VH1VL1-CD8ATD-CD137CSD-CD3zSSD fusion (anti-P329G chimeric antigen receptor). This is another data set of the same source.
Assay [9] addresses VL1VH3-CD8ATD-CD137CSD-CD3zSSD fusion (anti-P329G chimeric antigen receptor, VLVH orientation). This is another data set of the same source.
The target in assay [10] is VH3VL1-CD8ATD-CD137CSD-CD3zSSD fusion (anti-P329G chimeric antigen receptor). This is another data set of the same source.
Assay [11] concerns the target VH1VL1-CD8ATD-CD137CSD-CD3zSSD fusion (anti-P329G chimeric antigen receptor). The source holds these as a separate data set.
Assay [12] has as its target VH2VL1-CD8ATD-CD137CSD-CD3zSSD fusion (anti-P329G chimeric antigen receptor). This is another data set of the same source.
Assay [13] concerns the target VL1VH3-CD8ATD-CD137CSD-CD3zSSD fusion (anti-P329G chimeric antigen receptor, VLVH orientation). This is another data set of the same source.
Assay [14] addresses VH3VL1-CD8ATD-CD137CSD-CD3zSSD fusion (anti-P329G chimeric antigen receptor). This is another data set of the same source.
In assay [15] the target is VH1VL1-CD8ATD-CD137CSD-CD3zSSD fusion (anti-P329G chimeric antigen receptor). This is another data set of the same source.
Assay [16] concerns the target VH2VL1-CD8ATD-CD137CSD-CD3zSSD fusion (anti-P329G chimeric antigen receptor). This is another data set of the same source.
Assay [17] deals with VL1VH3-CD8ATD-CD137CSD-CD3zSSD fusion (anti-P329G chimeric antigen receptor, VLVH orientation). The source holds these as a separate data set.

Where two headings read alike, the source gives them in different places.

Chain of VH1VL1-CD8ATD-CD137CSD-CD3zSSD fusion (anti-P329G chimeric antigen receptor) (chain, as listed by the source P329G P329G): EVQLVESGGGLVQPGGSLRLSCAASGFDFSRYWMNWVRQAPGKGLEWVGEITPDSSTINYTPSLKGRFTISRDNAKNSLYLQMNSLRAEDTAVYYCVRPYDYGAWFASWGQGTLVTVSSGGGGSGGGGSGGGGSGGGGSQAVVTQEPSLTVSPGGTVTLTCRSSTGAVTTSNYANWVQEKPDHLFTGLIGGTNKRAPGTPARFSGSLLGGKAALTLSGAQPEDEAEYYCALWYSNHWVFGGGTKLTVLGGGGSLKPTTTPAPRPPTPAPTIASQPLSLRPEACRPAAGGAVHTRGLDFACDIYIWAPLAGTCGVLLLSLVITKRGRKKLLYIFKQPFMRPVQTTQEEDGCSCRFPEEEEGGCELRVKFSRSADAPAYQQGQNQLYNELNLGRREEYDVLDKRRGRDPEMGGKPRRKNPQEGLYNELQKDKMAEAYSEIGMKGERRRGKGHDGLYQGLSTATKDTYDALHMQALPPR
Chain of VH2VL1-CD8ATD-CD137CSD-CD3zSSD fusion (anti-P329G chimeric antigen receptor) (chain, as listed by the source P329G P329G): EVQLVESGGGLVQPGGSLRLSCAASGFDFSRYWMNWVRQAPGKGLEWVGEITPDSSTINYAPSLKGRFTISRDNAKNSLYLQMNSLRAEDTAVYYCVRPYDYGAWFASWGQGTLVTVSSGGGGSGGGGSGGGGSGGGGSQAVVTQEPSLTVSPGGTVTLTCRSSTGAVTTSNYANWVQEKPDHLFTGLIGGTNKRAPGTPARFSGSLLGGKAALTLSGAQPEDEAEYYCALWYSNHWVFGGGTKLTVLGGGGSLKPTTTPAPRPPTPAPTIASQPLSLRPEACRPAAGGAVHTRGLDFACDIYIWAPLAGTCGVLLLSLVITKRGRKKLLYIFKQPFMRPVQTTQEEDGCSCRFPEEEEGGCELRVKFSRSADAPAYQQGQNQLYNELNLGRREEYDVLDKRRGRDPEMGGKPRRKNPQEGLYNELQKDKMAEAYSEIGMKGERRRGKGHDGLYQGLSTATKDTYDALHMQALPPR
Chain of VH3VL1-CD8ATD-CD137CSD-CD3zSSD fusion (anti-P329G chimeric antigen receptor) (chain, as listed by the source P329G P329G): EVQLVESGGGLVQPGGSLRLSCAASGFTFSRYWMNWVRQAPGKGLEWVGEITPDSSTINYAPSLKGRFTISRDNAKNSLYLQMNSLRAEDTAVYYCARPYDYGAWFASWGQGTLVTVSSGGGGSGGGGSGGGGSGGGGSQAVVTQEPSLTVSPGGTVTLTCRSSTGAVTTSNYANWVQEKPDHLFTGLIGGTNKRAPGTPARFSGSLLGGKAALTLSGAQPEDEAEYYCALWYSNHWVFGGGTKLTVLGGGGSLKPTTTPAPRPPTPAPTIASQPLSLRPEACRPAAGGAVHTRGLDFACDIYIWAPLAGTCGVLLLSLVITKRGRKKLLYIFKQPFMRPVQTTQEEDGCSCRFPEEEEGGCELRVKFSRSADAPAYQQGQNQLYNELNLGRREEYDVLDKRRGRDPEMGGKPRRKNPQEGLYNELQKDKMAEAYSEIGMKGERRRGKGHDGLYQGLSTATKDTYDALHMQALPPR
Chain of VL1VH3-CD8ATD-CD137CSD-CD3zSSD fusion (anti-P329G chimeric antigen receptor, VLVH orientation) (chain, as listed by the source P329G P329G): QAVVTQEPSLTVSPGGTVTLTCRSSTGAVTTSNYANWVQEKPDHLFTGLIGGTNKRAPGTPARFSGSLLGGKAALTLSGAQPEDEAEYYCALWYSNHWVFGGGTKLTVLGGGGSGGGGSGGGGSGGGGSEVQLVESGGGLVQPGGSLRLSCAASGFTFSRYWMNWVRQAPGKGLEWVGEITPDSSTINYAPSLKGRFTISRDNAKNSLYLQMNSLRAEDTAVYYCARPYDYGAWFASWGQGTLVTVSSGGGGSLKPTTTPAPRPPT

Consider DP47 P329G LALA (antibody), for which the EC50, Jurkat NFAT luciferase reporter (RLU/s), WSUDLCL2 target cells 5:1, non-targeting antibody; flat at about 90 RLU/s with a small rise to about 190 RLU/s at the last point, no plateau in assay [1] is 43200 pM. The same substance had an EC50, Jurkat NFAT luciferase reporter (RLU/s), WSUDLCL2 target cells 5:1, non-targeting antibody; the curve stays at about 60 to 90 RLU/s (no activation), so the fitted value has no meaning in [2] of 293 pM. Besides, in assay [3], the EC50, Jurkat NFAT luciferase reporter (RLU/s), WSUDLCL2 target cells 5:1, non-targeting antibody; the curve stays at about 60 to 110 RLU/s (no activation), so the fitted value has no meaning stood at 7420 pM.
As for “anti-CD20 (GA101) D246A P329G IgG1 (antibody)”, the EC50, Jurkat NFAT luciferase reporter (RLU/s), WSUDLCL2 target cells 5:1; sigmoid curve with upper plateau in [4] is 5.82 pM; in [5], 8.14 pM; in assay [6], 10.4 pM; in assay [7] it was 6.19 pM.
Regarding anti-CD20 (GA101) LALA IgG1 (antibody), the EC50, Jurkat NFAT luciferase reporter (RLU/s), WSUDLCL2 target cells 5:1; the curve is flat (no activation), so the fitted value has no meaning in assay [8] was determined as 0.0485 pM; in assay [9] it was 0.000234 pM.
For “anti-CD20 (GA101) wild type IgG1 (antibody)”, the EC50, Jurkat NFAT luciferase reporter (RLU/s), WSUDLCL2 target cells 5:1; the curve is flat (no activation), so the fitted value has no meaning in assay [10] was 85 pM; in assay [11], 2.19 pM; in assay [12] it was 0.000119 pM; in assay [13], 78.3 pM.
As to “anti-CD20 (GA101) P329G LALA IgG1 (antibody)”, the EC50, Jurkat NFAT luciferase reporter (RLU/s), WSUDLCL2 target cells 5:1; sigmoid curve with upper plateau in [14] stood at 7.57 pM; in [15], 8.1 pM; in assay [16], 6.93 pM; in assay [17], 6.58 pM.
